Laboratory results from publication PMC5221584.

Molecular target: β:C12A yeast αβ-tubulin (yeast) (UniProt P09733)
Test: microtubule elongation rates by time-lapse DIC microscopy

affinity of the interactions that drive elongation (extrapolation to the x-axis): 42 nM | kon: 1.22e+07 M⁻¹ s⁻¹
Substance: β:C12A yeast αβ-tubulin (from UniProt P09733 1-447; P02557 1-457) (complex)
